Measurements reported in the supplement of paper PMC9112550, “Optimization of the antimicrobial peptide Bac7 by deep mutational scanning” (BMC Biology, 2022).

Test system: Escherichia coli TOP10
Assay: shrunken log2 fold change of peptide-encoding DNA abundance (4.5 h post-induction vs induction); higher = less antimicrobial activity (less host growth inhibition)
Details: time post-induction: 4.5 h; library: site-saturation at positions 5, 18, 19, 20
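Further: peptides expressed intracellularly from a pBAD plasmid library in pooled LB shake-flask culture, induced with 0.3% L-arabinose, DNA abundance read by NGS, three biological replicates, DESeq2 with apeglm shrinkage.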

Sequence	shrunken log2 fold change
RRIRFRPPRLPRPRPRPAGVPRP	0.172
RRIRYRPPRLPRPRPRPKLTPRP	-0.173
RRIRVRPPRLPRPRPRPCEVPRP	-0.0542
RRIRMRPPRLPRPRPRPYSNPRP	-0.834
RRIRYRPPRLPRPRPRPNYHPRP	-1.04
RRIRMRPPRLPRPRPRPCGPPRP	0.481
RRIRQRPPRLPRPRPRPANDPRP	-0.103
RRIRLRPPRLPRPRPRPGTEPRP	-0.0405
RRIRGRPPRLPRPRPRPCCTPRP	1.31
RRIRGRPPRLPRPRPRPPSSPRP	0.703
RRIRNRPPRLPRPRPRPLRRPRP	2.43
RRIRGRPPRLPRPRPRPVIAPRP	0.506
RRIRVRPPRLPRPRPRPMYDPRP	-0.0887
RRIRQRPPRLPRPRPRPTMAPRP	0.216
RRIRWRPPRLPRPRPRPYCVPRP	-0.521
RRIRGRPPRLPRPRPRPWSKPRP	-0.423
RRIRPRPPRLPRPRPRPKQMPRP	0.268
RRIRKRPPRLPRPRPRPWFFPRP	-0.043
RRIRIRPPRLPRPRPRPRTDPRP	-0.158
RRIRCRPPRLPRPRPRPCKPPRP	-0.216
RRIRRRPPRLPRPRPRPMVHPRP	0.113
RRIRGRPPRLPRPRPRPTNQPRP	0.579
RRIRMRPPRLPRPRPRPVRRPRP	0.447
RRIRVRPPRLPRPRPRPTKAPRP	-0.142
RRIRVRPPRLPRPRPRPAWEPRP	0.162

Sequence	shrunken log2 fold change
RRIRWRPPRLPRPRPRPSRQPRP	0.399
RRIRYRPPRLPRPRPRPANSPRP	-0.11
RRIRCRPPRLPRPRPRPQVEPRP	0.0599
RRIRSRPPRLPRPRPRPFVAPRP	-0.0664
RRIRQRPPRLPRPRPRPGNMPRP	-0.0822
RRIRIRPPRLPRPRPRPHSCPRP	-0.0433
RRIRDRPPRLPRPRPRPKDWPRP	0.601
RRIRQRPPRLPRPRPRPMWDPRP	-0.0352
RRIRGRPPRLPRPRPRPLVIPRP	0.187
RRIRLRPPRLPRPRPRPCAYPRP	-0.189
RRIRIRPPRLPRPRPRPMVHPRP	-0.0468
RRIRVRPPRLPRPRPRPLIWPRP	-0.0254
RRIRFRPPRLPRPRPRPGTVPRP	0.0642
RRIRIRPPRLPRPRPRPGLIPRP	-0.627
RRIRFRPPRLPRPRPRPCITPRP	-0.709
RRIRARPPRLPRPRPRPAWYPRP	0.0311
RRIRRRPPRLPRPRPRPLVWPRP	0.529
RRIRRRPPRLPRPRPRPTCDPRP	0.502
RRIRKRPPRLPRPRPRPEFMPRP	0.541
RRIRYRPPRLPRPRPRPTTSPRP	-0.382
RRIRNRPPRLPRPRPRPRPIPRP	0.333
RRIRMRPPRLPRPRPRPYIWPRP	-0.402
RRIRLRPPRLPRPRPRPASSPRP	-0.0827
RRIRDRPPRLPRPRPRPVSCPRP	0.342
RRIRVRPPRLPRPRPRPDFTPRP	-0.282

Sequence	shrunken log2 fold change
RRIRVRPPRLPRPRPRPANQPRP	-0.186
RRIRKRPPRLPRPRPRPAHLPRP	-0.00667
RRIRYRPPRLPRPRPRPIIQPRP	-0.0128
RRIRTRPPRLPRPRPRPMDHPRP	-0.31
RRIRNRPPRLPRPRPRPIGWPRP	0.115
RRIRARPPRLPRPRPRPLVRPRP	0.264
RRIRRRPPRLPRPRPRPSHKPRP	-0.0351
RRIRSRPPRLPRPRPRPTFDPRP	0.0254
RRIRWRPPRLPRPRPRPQVCPRP	0.189
RRIRSRPPRLPRPRPRPACAPRP	0.482
RRIRPRPPRLPRPRPRPELVPRP	0.442
RRIRNRPPRLPRPRPRPDSIPRP	-0.307
RRIRERPPRLPRPRPRPIHDPRP	0.0116
RRIRCRPPRLPRPRPRPYVNPRP	-1.3
RRIRQRPPRLPRPRPRPIGTPRP	0.0722
RRIRYRPPRLPRPRPRPQYCPRP	-0.361
RRIRNRPPRLPRPRPRPDQRPRP	0.021
RRIRPRPPRLPRPRPRPTWMPRP	-0.0166
RRIRQRPPRLPRPRPRPLQIPRP	0.223
RRIRFRPPRLPRPRPRPSLNPRP	-0.642
RRIRPRPPRLPRPRPRPVWSPRP	0.0634
RRIRHRPPRLPRPRPRPPVQPRP	-0.0798
RRIRDRPPRLPRPRPRPVYGPRP	-0.322
RRIRWRPPRLPRPRPRPDVDPRP	-0.0413
RRIRSRPPRLPRPRPRPKPNPRP	0.217

Sequence	shrunken log2 fold change
RRIRFRPPRLPRPRPRPNKFPRP	-0.783
RRIRYRPPRLPRPRPRPSGSPRP	-0.0607
RRIRNRPPRLPRPRPRPFPYPRP	-0.4
RRIRYRPPRLPRPRPRPSFHPRP	-1.01
RRIRTRPPRLPRPRPRPNFSPRP	0.059
RRIRKRPPRLPRPRPRPVTYPRP	-0.0821
RRIRERPPRLPRPRPRPGAMPRP	0.316
RRIRDRPPRLPRPRPRPGDQPRP	0.282
RRIRMRPPRLPRPRPRPLSIPRP	-0.0206
RRIRGRPPRLPRPRPRPCRFPRP	0.116
RRIRGRPPRLPRPRPRPMQVPRP	0.162
RRIRTRPPRLPRPRPRPEWAPRP	0.213
RRIRHRPPRLPRPRPRPMHQPRP	-0.108
RRIRNRPPRLPRPRPRPMMIPRP	-0.0237
RRIRARPPRLPRPRPRPAEKPRP	-0.0197
RRIRCRPPRLPRPRPRPLMLPRP	-0.646
RRIRWRPPRLPRPRPRPAMIPRP	-0.0987
RRIRTRPPRLPRPRPRPYITPRP	-1.19
RRIRDRPPRLPRPRPRPTFDPRP	0.853
RRIRPRPPRLPRPRPRPTVCPRP	0.149
RRIRFRPPRLPRPRPRPRGCPRP	0.433
RRIRNRPPRLPRPRPRPYTTPRP	-0.83
RRIRVRPPRLPRPRPRPVHWPRP	0.133
RRIRCRPPRLPRPRPRPVMYPRP	-0.199
RRIRVRPPRLPRPRPRPEGYPRP	-0.0123

Sequence	shrunken log2 fold change
RRIRHRPPRLPRPRPRPQSSPRP	-0.0152
RRIRNRPPRLPRPRPRPQITPRP	-1.07
RRIRKRPPRLPRPRPRPGDPPRP	1.21
RRIRMRPPRLPRPRPRPWIQPRP	-0.228
RRIRYRPPRLPRPRPRPFIYPRP	-0.86
RRIRQRPPRLPRPRPRPMIHPRP	-0.471
RRIRIRPPRLPRPRPRPRGYPRP	-0.794
RRIRYRPPRLPRPRPRPVCWPRP	0.196
RRIRWRPPRLPRPRPRPDDIPRP	-0.163
RRIRSRPPRLPRPRPRPYFMPRP	-0.848
RRIRFRPPRLPRPRPRPHCVPRP	-0.216
RRIRHRPPRLPRPRPRPMLMPRP	-0.121
RRIRYRPPRLPRPRPRPENYPRP	-0.0233
RRIRNRPPRLPRPRPRPSLTPRP	-0.266
RRIRYRPPRLPRPRPRPLNHPRP	-0.796
RRIRIRPPRLPRPRPRPRHFPRP	-0.00457
RRIRFRPPRLPRPRPRPWASPRP	-0.0247
RRIRLRPPRLPRPRPRPLHHPRP	-0.533
RRIRMRPPRLPRPRPRPWNQPRP	-0.0405
RRIRHRPPRLPRPRPRPWCIPRP	-0.228
RRIRRRPPRLPRPRPRPLDQPRP	-0.0226
RRIRERPPRLPRPRPRPENIPRP	-0.227
RRIRLRPPRLPRPRPRPQQYPRP	-0.277
RRIRFRPPRLPRPRPRPAPTPRP	0.912
RRIRVRPPRLPRPRPRPRRWPRP	0.334

Sequence	shrunken log2 fold change
RRIRIRPPRLPRPRPRPICRPRP	-0.107
RRIRNRPPRLPRPRPRPAEFPRP	0.0274
RRIRSRPPRLPRPRPRPKQCPRP	0.14
RRIRERPPRLPRPRPRPRDYPRP	-0.521
RRIRFRPPRLPRPRPRPQVQPRP	-0.0485
RRIRRRPPRLPRPRPRPFNKPRP	-0.712
RRIRPRPPRLPRPRPRPETQPRP	0.15
RRIRIRPPRLPRPRPRPCEAPRP	-0.395
RRIRERPPRLPRPRPRPCAIPRP	-0.15
RRIRGRPPRLPRPRPRPSELPRP	0.404
RRIRCRPPRLPRPRPRPCNFPRP	-0.0198
RRIRDRPPRLPRPRPRPNVEPRP	0.119
RRIRPRPPRLPRPRPRPHECPRP	-1.31
RRIRNRPPRLPRPRPRPPGAPRP	0.665
RRIRYRPPRLPRPRPRPTEHPRP	-0.501
RRIRGRPPRLPRPRPRPYLTPRP	-0.0518
RRIRKRPPRLPRPRPRPRQPPRP	0.467
RRIRMRPPRLPRPRPRPSCYPRP	-0.348
RRIRMRPPRLPRPRPRPWGQPRP	-0.0394
RRIRFRPPRLPRPRPRPVAYPRP	-0.19
RRIRHRPPRLPRPRPRPRKDPRP	-0.0956
RRIRGRPPRLPRPRPRPNHCPRP	-0.112
RRIRGRPPRLPRPRPRPTREPRP	0.994
RRIRERPPRLPRPRPRPNVMPRP	-0.403
RRIRKRPPRLPRPRPRPCDKPRP	0.000564
